Patent US8404652B2, “DNA-binding protein YB-1-containing collagen accumulation inhibitors” (Sumitomo Chemical Company, Limited, priority 2000, dated 2013)

Experiments:
Format in all cases: cell-based
[1] = system: promoter region of the human type-I collagen α2 strand gene (binding reporter vector); experiment: CAT reporter assay of test substances, binding reporter vector-transduced fibroblast
Experimental: (§1) 2 ml of an angelica extract [ICHIMARU-PHARCOS, PHARCOLEX (trade mark of ICHIMARU-PHARCOS), angelica] and 2 ml of a basswood extract [ICHIMARU-PHARCOS, PHARCOLEX (trade mark of ICHIMARU-PHARCOS), linden] were freeze-dried and each was combined with 1 ml of dimethyl sulfoxide (hereinafter referred to as DMSO) per 50 mg of the freeze-dried material, whereby obtaining an angelica extract sample and a linden extract sample.
(§2) A normal human fetal dermal fibroblast was inoculated in a population of 1×10^6 cells in a 60-mm dish and incubated in D-MEM (+) overnight at 37° C. under 5% CO2 atmosphere, and then the culture medium was replaced with D-MEM (−). On the other hand, 100 μl of D-MEM (−) was combined with either of 2 μg of the binding reporter vector DNA or 2 μg of the non-binding reporter vector DNA obtained in Example 2 (3), and the mixture was allowed to stand at room temperature for 40 minutes (Solution 1). To 100 μl of MEM(−), 4.5 μl of Lipofectine (Gibco, Catalog No.18292-011) was added and the mixture was allowed to stand at room temperature for 40 minutes (Solution 2). Then Solution 1 and Solution 2 were mixed and allowed to stand at room temperature for 10 minutes, and then combined with 2 ml of D-MEM (−) and mixed. This mixture was added to the normal human fetal fibroblast described above, which was then incubated at 37° C. under 5% CO2 atmosphere for 6 hours. […]

[2] = system: DNA-binding protein of invention (YB-1) fused with GFP (pCMX-YB-1-GFP); experiment: Fluorescent microscope examination of migration of YB-1-GFP into the nucleus; conditions: human fibroblast transduced with pCMX-YB-1-GFP; 4 hours contact; IFN-γ 100 U/ml as positive control
Experimental: 100 ng of YB-1/RSV, 10 pmol of an oligonucleotide consisting of the nucleotide sequence represented by SEQ ID NO:.15, 10 pmol of an oligonucleotide consisting of the nucleotide sequence represented by SEQ ID NO:.16, 5 μl of the buffer included in KOD-Dash (TOYOBO, Catalog No.RR002A), 5 μl of Mg^2+ solution, 5 μl of dNTP mixture, 1 μl of KOD-Dash and distilled water were mixed to prepare 50 μl in total of a PCR solution, which was used to perform a PCR. The condition of the PCR involved an incubation at 94° C. for 2 minutes, followed by 35 cycles, each cycle involving the incubations at 94° C. for 15 seconds, 60° C. for 30 seconds and then 68° C. for 1 minute. After the PCR, the PCR solution was digested with HindIII and Pm1I and subjected to an ethanol precipitation to recover a DNA (hereinafter a DNA obtained as a residue is referred to as a YB-1DNA.). […] The nucleotide sequence of the plasmid DNA thus obtained was analyzed, and a plasmid having a nucleotide sequence in which a GFP amino acid sequence was encoded downstream of the amino acid sequence of the DNA-binding protein of the present invention with its reading flame being continued was selected. […]

[3] = system: non-binding reporter vector; experiment: CAT reporter assay of test substances, non-binding reporter vector-transduced fibroblast; conditions: normal human fetal dermal fibroblast; sample 1 μg freeze dried material/ml, IFN-γ 100 U/ml; 40 hours; negative control of binding reporter cell = 1.0
Experimental: as §1, §2

[4] = system: human type-I collagen α2 strand mRNA; experiment: Type-I collagen α2 strand mRNA quantity (northern blotting) with test substances; conditions: extract 50 μg lyophilized sample per ml, INF-γ 100 U/ml
Experimental: A normal human fetal dermal fibroblast was inoculated in a population of […] in a 100-mm dish and incubated in D-MEM (+) overnight at 37° C. under 5% CO2 atmosphere. This cell was supplemented with the angelica extract sample prepared in Example 7 (2) at 50 μg lyophilized sample per ml medium and incubated further for 24 hours. In a case of negative control, the angelica extract sample was replaced with DMSO (added at 0.1% in the medium).
In a case of positive control, the angelica extract sample was replaced with INF-γ (added at 100 U/ml in the medium). The cell thus incubated was washed twice with a PBS, and used to prepare a total RNA similarly to Example 1 (1). […] The radioactivity of the air-dried filter was determined using BAStation.
On the other hand, 10 μg of the total RNA was subjected to an electrophoresis on the gel described above which contained 0.5 μg/ml of ethidium bromide (Gibco BRL, Catalog No.15582-018) and the fluorescent intensity of 28S ribosome RNA was quantified using Luminescent Image Analyzer LAS-1000 plus (FUJI FILM) and Image Gauge Ver 3.12 (FUJI FILM). The quantity of the type-I collagen α2 strand mRNA relative to the 28S ribosome RNA was calculated in accordance with the following equation. Type-I collagen α2 strand mRNA quantity=Radioactivity of band of about 5.8 kb/fluorescent intensity of 28S ribosome RNA […]

Row | localisation of YB-1-GFP fluorescence (cytoplasmic / intranuclear) [2] | Molecule | relative CAT activity ([1]; binding reporter vector-transduced normal human fetal dermal fibroblast, 8 μM in medium, methanol negative control = 1.0) | Relative CAT activity, non-binding reporter vector-transduced cell [3] | Relative CAT activity, binding reporter vector-transduced cell ([1]; normal human fetal dermal fibroblast, sample 1 μg freeze dried material/ml, IFN-γ 100 U/ml, 40 hours, negative control = 1.0) | Relative transcription level of type-I collagen gene (α2 strand mRNA level) ([4]; Table 5, TGFβ column prints Absent (method: TGFβ 10 ng/ml), negative control with TGFβ = 1.0) | Relative transcription level of type-I collagen gene (α2 strand mRNA level) ([4]; normal human fetal dermal fibroblast, TGFβ absent, 24 hours, negative control = 1.0)
1 |  | CC(O)C(O)/C=C/C=C\CC/C=C/C(=O)NCC(C)(C)O (stereo not drawn) [Compound A] | 0.7 |  |  |  | 
2 | no cytoplasmic fluorescence | Positive control: interferon-γ (Roche) added at 100 U/ml in the medium (protein, UniProt P01579 24-161, looked up) Interferon gamma: QDPYVKEAENLKKYFNAGHSDVADNGTLFLGILKNWKEESDRKIMQSQIVSFYFKLFKNFKDDQSIQKSVETIKEDMNVKFFNSNKKKRDDFEKLTNYSVTDLNVQRKAIHELIQVMAELSPAAKTGKRKRSQMLFRG |  | 0.9 | 0.6 | 0.5 | 0.5
